The data set in a line: soluble on expression in E. coli; label from the status in PepcDB or PDB records.
On to “MGSDKIHHHHHHMTWGFKNRLNTILPDGRAVMLAIDHGYFLGPIHGLEQPLETVKNLLPYTDSLFLTRGVLSSCIPENCSTPMVIRVSGGATVVGKDLANETIVTPVKEAVKQNAIGVGVSVFVGSDYETQTVTNLANVVSEAHDYCLPVLGITAVAKELQKREARFLALASRVCVEMGADIIKTYYCEGFEKITSTCPAPVVIAGGPKLDSIEDALNITYNALQEGAIGVDMGRNIWQSEHPAAMIQAIHGIVKNGLNVKEALQLYEDVKN”, for which the “soluble on expression in E. coli” value is on record as “not soluble”.

With “MSLNEHDIYMQDFMTVFASLQHWGPGSEQDSLKAISLMSMQNMQHILDIGCETGLSTLLLAENSSAHITAVDNEPIAIEQLEKQRQHSPWKEQISPVLGSMTALPFAAKSFDAIWAEGCVYIMGMENALKQWKPFLADNAILMVSDLVWLTENPKPEAQEFWQSEYPDIQSIPSRIKLFKKLGYEVMEHFSLGIDAWQNYWLPLQNRVQELKLRLTNSQALSDIEKEIAIYERSAAKDFTYQYFVLKLNHEGHHHHHH”, the “soluble on expression in E. coli” value is reported as “not soluble”.

For “MGSDKIHHHHHHMDPTTMPAPAPINYSQTWTFFEGEWHDGNVPIMGPRTHAAWLGSMVFDGARAFEGVTPDLDQHLARINWSATNFKLNALVDKATWLGLVQDGLKRFAGNAELYIRPMYWAQNGVGGGVLFDPDTTNWCLCIYEAPMPKPTGLSITLSPFRRPTAECAPVEAKAGCLYPNNSRAMMEAKSRGFDNCLLRDMLGHIAELGNSNIFMAKDGVVYTPAANGTFLSGITRQRVIELLRGDGITVLETSLSYRDFETADEIFASGNFAKVQPIIRIDDRSLQPGPFYAKARKLYWEFAHG”, the “soluble on expression in E. coli” value is reported as “not soluble”.

For “MSLKDMIDSIEQFAQTQADFPVYDCLGERRTYGQLKRDSDSIAAFIDSLALLAKSPVLVFGAQTYDMLATFVALTKSGHAYIPVDVHSAPERILAIIEIAKPSLIIAIEEFPLTIEGISLVSLSEIESAKLAEMPYERTHSVKGDDNYYIIFTSGTTGQPKGVQISHDNLLSFTNWMIEDAAFDVPKQPQMLAQPPYSFDLSVMYWAPTLALGGTLFALPKELVADFKQLFTTIAQLPVGIWTSTPSFADMAMLSDDFCQAKMPALTHFYFDGEELTVSTARKLFERFPSAKIINAYGPTEATVALSAIEITREMVDNYTRLPIGYPKPDSPTYIIDEDGKELSSGEQGEIIVTGPAVSKGYLNNPEKTAEAFFTFKGQPAYHTGDIGSLTEDNILLYGGRLDFQIKYAGYRIELEDVSQQLNQSPMVASAVAVPRYNKEHKVQNLLAYIVVKDGVKERFDRELELTKAIKASVKDHMMSYMMPSKFLYRDSLPLTPNGKIDIKTLINEVNNREGHHHHHH”, the “soluble on expression in E. coli” value is reported as “soluble”.

With “MGSDKIHHHHHHQPGATGGTWTCCPVSWRAFQSNCYFPLNDNQTWHESERNCSGMSSHLVTINTEAEQNFVTQLLDKRFSYFLGLADENVEGQWQWVDKTPFNPHTVFWEKGESNDFMEEDCVVLVHVHEKWVWNDFPCHFEVRRICKLPGITFNWKPSK”, the “soluble on expression in E. coli” value was “not soluble”.

As to “MKMVTGAVASVLEDEATDTSDSEGSCGSEKDHFYSDDDAIEADSEGDAEPCDKENENDGESSVGTNMGWADAMAKVLNKKTPESKPTILVKNKKLEKEKEKLKQERLEKIKQRDKRLEWEMMCRVKPDVVQDKETERNLQRIATRGVVQLFNAVQKHQKNVDEKVKEAGSSMRKRAKLISTVSKKDFISVLRGMDGSTNETASSRKKPKAKQTEVKSEEGPGWTILRDDFMMGASMKDWDKESDGPDDSRPESASDSDT”, the “soluble on expression in E. coli” value was “not soluble”.

On to “MAHHHHHHMEGQERRSVVEMTNTKTILLDPKDGWAPKAQFDFDASLWSIPPTHRIVHTFQDTKHKTYATQKDVYNLIAKDLVPHVFNGFNSCILTYGQTGSGKTYTMMGLYDPNASCGGDGEEGIIPRVSNDIFIILKERMEEEAKTRPPRDRTKFRVEVSFVEIYMERVRDLLDPALRHTRSNEHLQDARIRQDPYSGPFVEGVTKYEVENWTQCCTLLERGSQHRTTCATAVHNQSSRSHAIFQLTVVQEQVVPGNNKYALPAFKTQAGRINLVDLAGSERGGFQDYVKESAAINTSLLALRRVIDNLTERQNMLMEMAEAEITGKHYQERPLPQVPFRDSVLTWLLSDSIGGNARTTMVATLSPLVKNYADTLATLQWSSRARNLVTLVKMNDQALVHNGMASHAGALDNAVRIQRQNLDSLRQTLRSKQEAAQQLERQTKEHKKSLTKVRGRERAILRDRAALIIQRAFHRFLFYKKYEAYELHHAKLRGGNKRGTGDAADFQKIRKEAEAREQAAKEALKAEEALTDEKAAAVARYESNYEARALRRREAEERQARIVEVINGNELLRQYVEKRRQEVEALRSVADNENREREMAVKKLADMIKAIADHKTDQHKRKVEEDQKMLEMLRKKRDEVRSRRYEVLRQLQTLRERHKKVVKK”, for which the “soluble on expression in E. coli” value is recorded as “not soluble”.

On to “MFEQIKNNVENAIEALKQGKPVVVLDDYDRENEGDLILPGQKATEENIAFMLEHTSGIICLAMDSKKARELNLTPMVAADQNNSTFTTPFTVTIEAKEGVTTGVSAKDRAHTIQVASKADSKAEELARPGHIFPLIANDKGVLGRNGHTEATVDLMKLSGFNSAGVLCELMNKDGTMMKAAELEAFAKKHDLPLLTIAELYQYRLATENFVTKMASSTIPFKKIGELEMSVYKDNFSGDEVVVLSKPYSGNNPLVRMHSSCITGDIFGSLRCDCQDQLHKGIEMISEEGGFFIYLDQEGRGIGLTNKLKAYNLQMNENMDTLEANLALGLPADARKYDLAIQVLKYNNVNRCRLISNNPEKLAALRNVDIETQPVYCEAFVNSHNRNYLITKKIKAKHTIKGI”, for which the “soluble on expression in E. coli” value is “not soluble”.

With “MSLTNKELKKNLEDCVNCRLCYKVCPMMNTFGESPKNILRDIDKNKISYDEIAYSCMLCNACTEACPKDINLKEMFQNLRIKSYRENLKNTSKKFNLKVVQNHQKGSFSKFLTSKNNHKKIKRVFIPGCSLSGYNNEIIFKIKDYLIENLGKVEILLKCCGKPSKDIGNLELFESNLNDIENNLKIKEVDEIIVACENCYKTFGSAFKDIKVITLWEVINEFGVPKELKNKYSDLKEEFALHDPCPIKKEEQIHEAVRSILKDLGIKIVEFEKNRSKTECCGCGGMVGVTNKELWLSQKNKRANSTECENIVSYCESCVNTFKSSDKNALHILDFIFNEDVINGKAKSQKNISTINQWINRIKLANKVGKEGHHHHHH”, the “soluble on expression in E. coli” value was “not soluble”.

For the sequence “MSLDLASKYFNDIDWRYVDHSSGLAPMQSFAFDDTFSESVGKDLSCNVVRTWIHQHTVILGIHDSRLPFLKDGIKYLTDEIGYNAIVRNSGGLGVVLDQGVLNISLIFKGQTETTIDEAFTVMYLLICKMFENEDVEIDTREIEHSYCPGKFDLSIDGKKFAGISQRRVRGGIAVQIYLCVEGSGSERAEMMRVFYEHALKGEVTKFKYPDIHPECMASLETLFEREIKVQDVMFQLLHAIKDLGGNLNMDPITEDEWTRYEGYFDKMIDRNEKMNRSIEADEGHHHHHH”, the “soluble on expression in E. coli” value is “soluble”.

“SNAMARKKNTSDQSRSQAANTPIAGTYEGEYSVIELEADSYTTDGWLISINGVPSSHIVLGQPQALEFEYMRWIATGARAFIDAHQDASKLRITHLGGGACTMARYFADVYPQSRNTVVELDAELARLSREWFDIPRAPRVKIRVDDARMVAESFTPASRDVIIRDVFAGAITPQNFTTVEFFEHCHRGLAPGGLYVANCGDHSDLRGAKSELAGMMEVFEHVAVIADPPMLKGRRYGNIILMGSDTEFFSSNSTEASAITRELLGGGVPAQYKDESWVRKFASGAQARHDGVSTLQMPSDTPQHPAETPEHSNTQP”: the “soluble on expression in E. coli” value is reported as “soluble”.

For “MTLKGMSYVMCTGSFKLEKEVAETQHGTVLVQVKYEGTDAPCKIPFSTQDEKGATQNGRLITANPIVTDKEKPVNIEAEPPFGESYIVVGAGEKALKLSWFKKGSSIG”, the “soluble on expression in E. coli” value is given as “soluble”.

As for “MGHHHHHHSHVAEGQEPAEFWDLLGGKTPYANDKRLQQEILDVQSRLFECSNKTGQFVVTEITDFTQDDLNPTDVMLLDTWDQVFLWIGAEANATEKESALATAQQYLHTHPSGRDPDTPILIIKQGFEPPIFTGWFLAWDPNIWSAGKTYEQLKEELGDAAAIMRITADMKNATLSLNSNDSEPKYYPIAVLLKNQNQELPEDV”, the “soluble on expression in E. coli” value is “soluble”.

Turning to “MARPETEPKTELAKRFREVRRILGFTERKQFAEHLGVTAGSIGTYETGVSEPTASALSKYQEICGVSLDWLVTGNGEMFTDMAKAKAAGFKPQAIPAGLMKRLGHLAYTTYHDAKITLPPEDVAELAAGLYGKLQELIHNINDMEEVEATLPLLKLHLKRQIEVEKAHRAIPGNTANSSD”, the “soluble on expression in E. coli” value is on record as “not soluble”.

Consider “DIKVTPGTSELVEQILALLSRYLSSYIHVLNKFISHLRRVATLRFERTTLIKFVKKLRFYNDSVLSYNASEFINEGKNELDPEADSFDKVILPIASMFVKSVETFDLLNYYLTQSLQKEILSKTLNEDLTLTAESILAIDDTYNHFVKFSQWMIESLRIGSNLLDLEVVQFAIKSADEDGTNIGETDNIFLQEILPVNSEEEFQTLSAAWHSILDGKLSALDEEFDVVATKWHD”, for which the “soluble on expression in E. coli” value was “soluble”.

As to “MRTAVIIPFYQREAGILSRALDSVDGQILPEGHSLTVFVIDDESPVSARSEVEGRQGKVPVRLIAQKNGGPGAARNAGLDAVAAEGFDHVAFLDSDDIWQPTHLADALDLLARGYDFHFCDHQRTDDDITYFERTPALRRMREERHAGVTVLDAEAPILAFDQPSIMAASVDTYLSQTSTVVVRQSFVETLRFDPRLRNAGEDQLFWLSLIAAGARTVVSWKMNVLCGRGVNVYFDAFDWKSTKVVDRTGYMLMFFHTVGRRLSLTASDRRTVADRIRRYRRAYSYLFLRALLQGRVPTLSLTWKLAALDPGLVPAMPLRFLAVLPNREAESLQWLEHHHHHH”, the “soluble on expression in E. coli” value is given as “not soluble”.

Turning to “MGSDKIHHHHHHMTQNLRVIIDARMVNKHLHGIARYTYEIIKHMSYEDNVEMILLVNDLEEASKIFGQFNNIKFKRMRSKFLSIFEQIELPMIVNKYKNMAIFHSPSFVASPFIKCKMIMTIHDLNHLKFPQYYTPFHKYYYKYIVKKCALKSKKILTVSEFSKEEIFKWIKCDRDKIKVTYNGIDPKFHVISDAEKLKKIKEKYKLPDRFILYIGNLKPHKNVETLVKAMRFIDGKVKLVINGTINKSISEILDKFNLLEKVKFIGYVNEDELPLLYNLASVFVFPSLYEGFGLPPLEAAVCGCKVIISDISSLSEIMSDYGVKVNPLDSKGMAREIKKILENSSIDICNKEKETFVQKYSWNKTSSKTLEIYKEINKEFL”, the “soluble on expression in E. coli” value was “not soluble”.

On to “MANQLSTQQVKRDITTDPTLLTGADIKKYFDPQNLLSEKQVGQALALCKGRNLNPFANEVYIVAYKNNSGTDFSLIVSKEAFMKRAERCEGYDGFEAGITVMRNGEMVEIEGSLKLPDDVLIGGWAIVYRKDRSHRYKVTVDFNEYVKLDKYGNPRSTWKSMPGTMIRKTALVQTLREAFPDELGNMYTDIDGGDTFDAIKDVTPQETQEEVRARKMAQIEQYKQEQTQKQTQKADTSYPVDEVSEHTDDPVQGELLDGELEY”, for which the “soluble on expression in E. coli” value is given as “not soluble”.

As for “DKKQLVLVLCASGATSSMLANAITKGAKQEGVNVESIAMAYGQHKDVIADYDLIILAPQMASMYEELKADCASKGTKSATTTGKEYVKLTRDPVGALKFALDIINE”, the “soluble on expression in E. coli” value is “not soluble”.

On to “MRFFSLIKLPVVLVLAGLLSACGFHLRGEYSVPEELHTMSFSSYDEYSKLTRYVRSQLQLNKVDLVQPSSSVPNLHLIKATMDERTLSLYQNSRAAEKELTYVVQYRVTIPGFGSKNFTTTVNRNYLDNPLTALAKSVERDVIEDEMRQQAAKQMMRQLGRIRAEYEAGQIAAPTEKTNSLEHHHHHH”, for which the “soluble on expression in E. coli” value was “not soluble”.

“MYVQGKIGLDQLAEAERLHATLCREVQQRLDIRLRAHRAVLDELNERLADKLFCNFSVFQSIPDAWAIDQIFPVMPLQRLGEEPTRRAVIQDMTCDSDGRINAYIDRQSIENTLRMHAPAPGEPYLIGFFLVGAYQEILGDMHNLFGDTHSVDVELDGAGGYTFTHTRRGDGADDLLRYVHIDPDELERLEHHHHHH”: the “soluble on expression in E. coli” value was “not soluble”.

(Values after the DeepSol protein solubility set.)
